Substitutions are numbered along the chain they refer to. Read-outs that look alike come from different tables or passages of the source.
Assays:
wildtype SARS-2 RBD [1] = target: T1, wildtype SARS-2 RBD (SARS-CoV-2, GenBank MN975262.1 …, UniProt A0A679G9E9)
wildtype SARS-2 RBD [2] = target: T1, wildtype SARS-2 RBD; test: BLI

B1: Ab19 (antibody, V domains shown)
VH: QVQLQQSGAELARPGASVKLSCKASGYPFTSYGINWVKQRTGQGLEWIGEIYPRIGNTYYNEKFKGKATLTADKSSSTAYMEFRSLTSEDSAVYFCARSWNSNYGEYYFDYWGQGTTLTVS
VL: DIVMTQSHKFMSTSIGDRVSITCKASHDVSTAVAWYQQKPGQSPKLLIYWASTRHTGVPDRFTGSGSGTDYTLTIRSVQAEDLALYYCQQHYSTPYTFGGGTKLEIK
binding result (wildtype SARS-2 RBD [1]): binds

B2: Ab20 (antibody, V domains shown)
VH: EVQLQQSGPELVKPGASVKISCKASGFSFTGYSMNWMKQSPEKSLEWIGEINPTTGGTTYNQKFKAKATLTVDKSSSTAYIQLKSLTSEDSAVYYCARGRADYWGQGTTLTVSS
VL: DIVLTQSPASLAVSLGQRATISCRASESVEYYGTGLVQWFQQKPGQPPKLLIYAASNVESGVPARFSGSGSGTDFSLNIHSVEEDDIAMYFCHQSRKLPWTFGGGTKLEIK
binding result (wildtype SARS-2 RBD [1]): binds

B3: Ab15 (antibody, V domains shown)
VH: EVQLQQSGPELVKPGASVKISCKASGYSFTGYYMNWVKQSPEKSLEWIGEINPNFGGTTYNQKFKAKATLTVDKSSSTAYMQLKSLTSEDSAVYYCARYYGNLYAMDYWGQGTSVTVS
VL: DILMTQSPSSMSVSLGDTVSITCHASQGISSNIGWLQQKPGKSFKGLIYHGTNLEDGVPSRFSGSGSGAAYSLTISSLESEDFADYYCVQYTHFPYTFGGGTKLEIK
binding result (wildtype SARS-2 RBD [1]): binds

B4: Ab16 Fab (Fab, V domains shown)
VH: B3 VH with T30N, G31N, F55S, G57Y, T59S, K65R, S77T, Y100F, Y104F, Y108F
VL: B3 VL with S30G, H50L, A70D, T92V, H93Q
binding result (wildtype SARS-2 RBD [2]): binds

Reference: publication doi:10.1101/2021.03.15.435440 (bioRxiv, 2021)
